# Source: publication PMC5290284, “Portal protein functions akin to a DNA-sensor that couples genome-packaging to icosahedral capsid maturation” (Nature Communications, 2017)
# T1: P22 PC-portal rings coupled to CNBr-activated Sepharose beads (bacteriophage P22, UniProt P26744 1-725)
# T1 construct: Portal protein (gp1) of bacteriophage P22; Procapsid conformation; also called PC-portal protein; PC-portal beads; source: E. coli BL21 (DE3), purified (Ni-NTA, Superose 6); copies: 12
# T1 sequence (looked up): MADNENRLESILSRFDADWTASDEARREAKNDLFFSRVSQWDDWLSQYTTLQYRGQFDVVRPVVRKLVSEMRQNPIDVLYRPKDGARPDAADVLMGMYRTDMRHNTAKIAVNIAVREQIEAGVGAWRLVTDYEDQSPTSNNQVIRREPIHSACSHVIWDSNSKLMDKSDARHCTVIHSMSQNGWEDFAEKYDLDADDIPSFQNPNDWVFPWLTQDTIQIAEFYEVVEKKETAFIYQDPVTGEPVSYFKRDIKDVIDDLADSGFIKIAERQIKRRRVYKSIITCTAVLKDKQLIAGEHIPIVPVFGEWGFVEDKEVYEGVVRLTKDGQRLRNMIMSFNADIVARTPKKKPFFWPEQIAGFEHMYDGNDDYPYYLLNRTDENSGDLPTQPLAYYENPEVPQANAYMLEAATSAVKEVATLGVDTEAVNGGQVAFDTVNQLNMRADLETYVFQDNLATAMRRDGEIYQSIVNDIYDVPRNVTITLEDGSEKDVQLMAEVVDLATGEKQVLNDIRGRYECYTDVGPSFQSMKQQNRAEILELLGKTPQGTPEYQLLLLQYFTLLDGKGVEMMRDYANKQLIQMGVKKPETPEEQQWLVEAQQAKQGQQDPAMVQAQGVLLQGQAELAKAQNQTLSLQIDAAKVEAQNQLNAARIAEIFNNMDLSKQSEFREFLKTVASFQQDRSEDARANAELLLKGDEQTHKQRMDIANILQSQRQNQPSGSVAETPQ
# T2: P22 MV-portal rings coupled to CNBr-activated Sepharose beads (bacteriophage P22, UniProt P26744 1-725)
# T2 construct: Portal protein (gp1) of bacteriophage P22; Mature virion conformation; also called MV-portal protein; MV-portal beads; source: E. coli BL21 (DE3), purified (Ni-agarose, Superose 12); copies: 12
# T2 sequence (looked up): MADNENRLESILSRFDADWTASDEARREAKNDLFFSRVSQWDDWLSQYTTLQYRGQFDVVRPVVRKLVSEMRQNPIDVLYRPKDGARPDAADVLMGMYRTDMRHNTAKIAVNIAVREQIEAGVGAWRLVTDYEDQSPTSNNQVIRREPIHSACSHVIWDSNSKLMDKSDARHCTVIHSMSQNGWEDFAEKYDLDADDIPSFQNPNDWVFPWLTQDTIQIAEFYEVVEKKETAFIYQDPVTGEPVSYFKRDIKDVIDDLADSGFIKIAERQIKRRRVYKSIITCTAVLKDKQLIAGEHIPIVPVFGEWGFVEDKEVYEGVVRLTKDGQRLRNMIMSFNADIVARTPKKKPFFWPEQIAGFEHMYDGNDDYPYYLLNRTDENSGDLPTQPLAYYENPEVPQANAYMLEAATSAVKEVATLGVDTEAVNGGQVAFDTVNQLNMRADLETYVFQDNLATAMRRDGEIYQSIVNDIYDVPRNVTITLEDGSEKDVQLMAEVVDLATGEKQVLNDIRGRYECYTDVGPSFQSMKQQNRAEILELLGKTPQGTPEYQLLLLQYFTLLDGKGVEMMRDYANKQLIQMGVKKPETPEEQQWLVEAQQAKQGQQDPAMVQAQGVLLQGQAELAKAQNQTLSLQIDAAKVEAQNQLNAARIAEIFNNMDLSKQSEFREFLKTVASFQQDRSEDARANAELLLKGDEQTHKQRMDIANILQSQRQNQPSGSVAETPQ
# Tests used:
# [1] = biological target: the molecule itself; test: crystal structure; PC-portal core at 10 mg/ml, 5% PEG 8,000, 10 mM caesium chloride, pH 5.6, 22 °C; 3.30 Å; whole dodecamer in the asymmetric unit
# [2] = biological target: T1, P22 PC-portal rings coupled to …; test: pull-down; PC- or MV-portal rings immobilized on CNBr-activated Sepharose 4B beads; soluble protein added (L-terminase pre-complexed with non-hydrolyzable ATP); bound and unbound fractions on SDS–PAGE; conditions: both partners purified
# [3] = biological target: T2, P22 MV-portal rings coupled to …; test: as above; conditions: both partners purified
Binder,stoichiometry N [1],stoichiometry N [2],stoichiometry N [3]
"P22 PC-portal protein core (res. 1–602), procapsid conformation (domain or fragment, bacteriophage P22, UniProt P26744 1-602, looked up, Portal protein (gp1) of bacteriophage P22, core, residues 1–602; Asymmetric dodecamer; also called PC-portal core; portal-602; copies: 12) MADNENRLESILSRFDADWTASDEARREAKNDLFFSRVSQWDDWLSQYTTLQYRGQFDVVRPVVRKLVSEMRQNPIDVLYRPKDGARPDAADVLMGMYRTDMRHNTAKIAVNIAVREQIEAGVGAWRLVTDYEDQSPTSNNQVIRREPIHSACSHVIWDSNSKLMDKSDARHCTVIHSMSQNGWEDFAEKYDLDADDIPSFQNPNDWVFPWLTQDTIQIAEFYEVVEKKETAFIYQDPVTGEPVSYFKRDIKDVIDDLADSGFIKIAERQIKRRRVYKSIITCTAVLKDKQLIAGEHIPIVPVFGEWGFVEDKEVYEGVVRLTKDGQRLRNMIMSFNADIVARTPKKKPFFWPEQIAGFEHMYDGNDDYPYYLLNRTDENSGDLPTQPLAYYENPEVPQANAYMLEAATSAVKEVATLGVDTEAVNGGQVAFDTVNQLNMRADLETYVFQDNLATAMRRDGEIYQSIVNDIYDVPRNVTITLEDGSEKDVQLMAEVVDLATGEKQVLNDIRGRYECYTDVGPSFQSMKQQNRAEILELLGKTPQGTPEYQLLLLQYFTLLDGKGVEMMRDYANKQLIQMGVKKPETPEEQQWLVEAQQAKQG",12 protomers,–,–
"P22 tail factor gp4 (natural protein, bacteriophage P22, UniProt P26746 1-166, looked up, Tail factor gp4 of bacteriophage P22; source: E. coli BL21 (DE3), purified (Ni-agarose, Superdex 75)) MQIKTKGDLVRAALRKLGVASDATLTDVEPQSMQDAVDDLEAMMAEWYQDGKGIITGYVFSDDENPPAEGDDHGLRSSAVSAVFHNLACRIAPDYALEATAKIIATAKYGKELLYKQTAISRAKRAPYPSRMPTGSGNSFANLNEWHYFPGEQNADSTTPHDEGNG",–,11.4 ± 1 gp4 equivalents,11 ± 1 gp4 equivalents
